{"source": "patent US7160677", "about": "“Transcription factor DP-1” (Topotarget UK Limited)", "key": {"[1]": {"molecular_target": "Gal4 activation domain-E2F-1 hybrid protein (pGAD.E2F-1) (yeast) (UniProt P04386)", "test": "cell-based or functional assay"}, "[2]": {"molecular_target": "T1, wild-type E2F-1^1-437 (Homo sapiens (Human), UniProt Q01094 1-437, radiolabelled with 35S methionine (in vitro translated form) ; chain 1: radiolabelled with 35S methionine (in vitro translated form); letters unchanged)", "T1 construct": "Translated in reticulocyte lysate for the pull-down; The same full-length protein was expressed from pE2F-1/pCMV E2F-1 in the transfection assays; also called in vitro transcribed and translated E2F-1 polypeptide; pE2F-1", "T1 sequence (Q01094 whole entry)": "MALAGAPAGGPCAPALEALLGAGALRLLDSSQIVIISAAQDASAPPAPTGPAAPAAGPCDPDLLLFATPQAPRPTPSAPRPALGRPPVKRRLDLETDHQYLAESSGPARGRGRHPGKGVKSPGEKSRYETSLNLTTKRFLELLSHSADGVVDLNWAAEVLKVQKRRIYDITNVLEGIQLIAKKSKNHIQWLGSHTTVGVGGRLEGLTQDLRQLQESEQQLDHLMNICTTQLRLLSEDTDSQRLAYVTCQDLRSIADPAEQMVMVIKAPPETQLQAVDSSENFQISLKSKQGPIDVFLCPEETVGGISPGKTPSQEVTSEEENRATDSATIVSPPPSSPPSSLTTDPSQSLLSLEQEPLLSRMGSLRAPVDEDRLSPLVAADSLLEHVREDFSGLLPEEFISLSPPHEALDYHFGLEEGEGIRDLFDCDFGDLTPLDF", "test": "GST pull-down (glutathione-agarose) of in vitro translated 35S-labelled E2F-1", "excerpt": "DP-1 and E2F-1 were expressed as, and released from, GST fusion proteins as previously described (Girling et al., 1993). About 100-fold excess of the competing binding sites were used in gel retardation assays, with the binding site taken from the adenovirus E2A promoter (−71 to −50). The wild-type E2F-1 coding sequence was transcribed and further translated using reticulocyte lysate (Promega) and radiolabelled with ^35S methionine. In the dimerization assay (FIG. 2d), GST-DP-1 fusion protein was incubated with E2F-1 polypeptide for 30 min at 30° C., collected with glutathione-agarose (Sigma), and washed repeatedly with 0.1% NF40-in PBSA. Bound E2F-1 polypeptide was released by denaturation in SDS sample buffer and resolved in a 10% polyacrylamide gel.\nGST fusion proteins, or GST protein along (track 2), were collected with glutathione-agarose beads and bound E2F-1 polypeptide released."}, "[3]": {"molecular_target": "GST-E2F-1(89-437) (UniProt Q01094 Q01094:89-437)", "sequence (Q01094 89-437, one chain of several)": "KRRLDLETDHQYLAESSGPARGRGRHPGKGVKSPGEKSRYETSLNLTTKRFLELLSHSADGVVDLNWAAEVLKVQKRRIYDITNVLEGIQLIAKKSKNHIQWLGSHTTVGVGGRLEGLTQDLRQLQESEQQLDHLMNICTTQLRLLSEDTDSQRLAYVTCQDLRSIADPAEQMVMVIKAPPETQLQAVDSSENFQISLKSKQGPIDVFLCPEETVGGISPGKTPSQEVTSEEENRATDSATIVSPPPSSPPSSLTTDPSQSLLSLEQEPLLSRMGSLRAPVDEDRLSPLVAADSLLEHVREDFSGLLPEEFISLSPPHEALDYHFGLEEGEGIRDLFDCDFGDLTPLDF", "test": "EMSA", "settings": "tags: GST"}, "[4]": {"molecular_target": "DP-1(84-249)/E2F-1(89-437) heteromer (Mus musculus / Homo sapiens?, UniProt Q08639;Q01094 Q08639:84-249,Q01094:89-437)", "sequence (Q01094 89-437, one chain of several)": "as above", "test": "EMSA; greater than E2F-1 alone", "settings": "tags: DP-1 thrombin-released or GST; E2F-1 GST", "method": "Cell extracts were prepared as previously described (La Thangue et al., 1990). Gel retardation in F9 EC and HeLa cell extracts (about 6.0 µg) in the presence of anti-DP-1 was performed as previously described (Girling et al., 1993), and immunoprecipitation with anti-DP-1 from HeLa cell extracts was performed by standard procedures. The immunoprecipitates were treated with 1% DOC and 1.5% NP40 and the detergent released material assayed for DRTF1/E2F by gel retardation and the presence of E2F-1 by immunoblotting with the anti-E2F-1 monoclonal antibody SQ41 (Kaelin et al., 1992). The anti-DP-1 antibodies, anti-peptide A and anti-peptide 18, have been previously described (Girling et al., 1993). Rabbit anti-E2F-1 antiserum (antiserum 134) was raised against a peptide which represents E2F-1 amino acid sequence 315 to 323. The sequences of the binding sites used to assess DNA binding specificity were derived from the adenovirus E2A promoter (−71 to −50) and were as follows: WT; […] (SEQ ID NO: 7); 62/60, […]; (SEQ ID NO: 8); 63, […] (SEQ ID NO: 9); 64, […] (SEQ ID NO: 10). In FIG. 2a (tracks 1 to 4), the adenovirus E2A promoter (−96 to +68) was used; in all other cases, the distal E2F site in the E2A promoter (sequences −71 to −50) was used. About 100-fold excess of competing binding sites were used in the gel retardation assays. […]"}, "[5]": {"molecular_target": "DP-1(84-204)/E2F-1(89-437) heteromer (Mus musculus / Homo sapiens?, UniProt Q08639;Q01094 Q08639:84-204,Q01094:89-437)", "sequence (Q01094 89-437, one chain of several)": "as above", "test": "EMSA; less than with DP-1 84-249", "settings": "tags: DP-1 thrombin-released or GST; E2F-1 GST", "method": "Cell extracts were prepared as previously described (La Thangue et al., 1990). Gel retardation in F9 EC and HeLa cell extracts (about 6.0 µg) in the presence of anti-DP-1 was performed as previously described (Girling et al., 1993), and immunoprecipitation with anti-DP-1 from HeLa cell extracts was performed by standard procedures. The immunoprecipitates were treated with 1% DOC and 1.5% NP40 and the detergent released material assayed for DRTF1/E2F by gel retardation and the presence of E2F-1 by immunoblotting with the anti-E2F-1 monoclonal antibody SQ41 (Kaelin et al., 1992). The anti-DP-1 antibodies, anti-peptide A and anti-peptide 18, have been previously described (Girling et al., 1993). Rabbit anti-E2F-1 antiserum (antiserum 134) was raised against a peptide which represents E2F-1 amino acid sequence 315 to 323. The sequences of the binding sites used to assess DNA binding specificity were derived from the adenovirus E2A promoter (−71 to −50) and were as follows: WT; […] (SEQ ID NO: 7); 62/60, […]; (SEQ ID NO: 8); 63, […] (SEQ ID NO: 9); 64, […] (SEQ ID NO: 10). In FIG. 2a (tracks 1 to 4), the adenovirus E2A promoter (−96 to +68) was used; in all other cases, the distal E2F site in the E2A promoter (sequences −71 to −50) was used. About 100-fold excess of competing binding sites were used in the gel retardation assays."}, "[6]": {"molecular_target": "DP-1(59-410)/E2F-1(89-437) heteromer (Mus musculus / Homo sapiens?, UniProt Q08639;Q01094 Q08639:59-410,Q01094:89-437)", "sequence (Q08639 59-410, chain 1 of 2)": "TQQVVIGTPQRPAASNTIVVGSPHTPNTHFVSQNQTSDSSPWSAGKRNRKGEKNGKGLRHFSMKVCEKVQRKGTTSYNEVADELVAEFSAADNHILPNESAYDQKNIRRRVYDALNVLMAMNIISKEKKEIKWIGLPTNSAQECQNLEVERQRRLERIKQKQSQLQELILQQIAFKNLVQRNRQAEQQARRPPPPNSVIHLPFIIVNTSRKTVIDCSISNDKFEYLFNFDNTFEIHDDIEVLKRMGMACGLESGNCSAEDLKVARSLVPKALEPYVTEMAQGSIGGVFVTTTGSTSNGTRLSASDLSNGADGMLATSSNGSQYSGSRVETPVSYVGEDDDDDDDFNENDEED", "sequence (Q01094 89-437, chain 2 of 2)": "as the sequence (Q01094 89-437, one chain of several) above", "test": "EMSA; synergistic; anti-E2F-1 supershift, anti-DP-1 inhibits", "settings": "tags: GST on both"}}, "data": [{"molecule": "LexA-DP-1 hybrid protein (pLEX.DP-1) (from UniProt P0A7C2 1-202)", "values": [{"measurement": "activity of p4xWT CYC1 (E2F site-dependent transcription in yeast, β-galactosidase)", "setting": "[1]", "result": 50, "unit": "fold"}, {"measurement": "transcriptional activity of the LexA reporter construct (yeast two-hybrid, β-galactosidase)", "setting": "[1]", "result": 75, "unit": "fold"}]}, {"molecule": "GST-DP-1^84-166 (other, Uncleaved GST fusion; not shown: glutathione-S-transferase (GST)) PNTHFVSQNQTSDSSPWSAGKRNRKGEKNGKGLRHFSMKVCEKVQRKGTTSYNEVADELVAEFSAADNHILPNESAYDQKNIR", "values": [{"measurement": "binding result", "setting": "[2]", "result": "no binding (tested: about 2 µg GST fusion protein)"}]}, {"molecule": "E2A distal E2F site WT (-71 to -50) (dsDNA) DNA 1: TAGTTTTCGCGCTTAAATTTGA DNA 2: TCAAATTTAAGCGCGAAAACTA", "values": [{"measurement": "binding result", "setting": "[3]", "result": "binds"}, {"measurement": "binding result", "setting": "[4]", "result": "binds"}, {"measurement": "binding result", "setting": "[5]", "result": "binds"}, {"measurement": "binding result", "setting": "[6]", "result": "binds"}]}]}
